Test results reported in patent publication US20240270846A1 (published 2024).
Changes are numbered by the printed parent chain. Numbers in names are those of the source.

B1: GLS3000 K50A (Kabat) L chain altered form, one-arm antibody with CE115HA000 (antibody, human IgG1, kappa, L234A L235A, N297A, name in Kabat numbering)
heavy: QVQLVESGGGVVQPGRSLRLSCAASGFTFSNAWMHWVRQAPGKGLEWVAQIKAKSNNYATYYAESVKGRFTISRDDSKNSLYLQMNSLKTEDTAVYYCRYVHYGAYYGVDAWGQGTTVTVSSASTKGPSVFPLAPSSKSTSGGTAALGCLVKDYFPEPVTVSWNSGALTSGVHTFPAVLQSSGLYSLSSVVTVPSSSLGTQTYICNVNHKPSNTKVDKKVEPKSCDKTHTCPPCPAPEAAGGPSVFLFPPKPKDTLMISRTPEVTCVVVDVSHEDPEVKFNWYVDGVEVHNAKTKPREEQYASTYRVVSVLTVLHQDWLNGKEYKCKVSNKALPAPIEKTISKAKGQPREPQVYTLPPSRCELTKNQVSLSCAVKGFYPSDIAVEWESNGQPENNYKTTPPVLDSDGSFFLVSKLTVDKSRWQQGNVFSCSVMHEALHNHYTQKSLSLSPDYKDDDDK
chain: EPKSSDKTHTCPPCPAPELLGGPSVFLFPPKPKDTLMISRTPEVTCVVVDVSHEDPEVKFNWYVDGVEVHNAKTKPREEQYNSTYRVVSVLTVLHQDWLNGKEYKCKVSNKALPAPIEKTISKAKGQPREPQVCTLPPSRDELTKNQVSLWCLVKGFYPSDIAVEWESNGQPENNYKTTPPVLDSDGSFFLYSKLTVDKSRWQQGNVFSCSVMHEALHNRYTQKSLSLSP
light: DIVMTQSPLSLPVTPGEPASISCRSSQSLVHSNRNTYLHWYQQKPGQAPRLLIYAVSNRFSGVPDRFSGSGSGTDFTLKISRVEAEDVGVYYCGQGTQVPYTFGQGTKLEIKRTVAAPSVFIFPPSDEQLKSGTASVVCLLNNFYPREAKVQWKVDNALQSGNSQESVTEQDSKDSTYSLSSTLTLSKADYEKHKVYACEVTHQGLSSPVTKSFNRGEC
notes: one-arm antibody
B2: GLS3000 N28F (Kabat) L chain altered form, one-arm antibody with CE115HA000 (antibody, human IgG1, kappa, L234A L235A, N297A, name in Kabat numbering)
heavy: B1 heavy
chain: B1 chain
light: B1 light with N33F, A55K
notes: one-arm antibody
B3: GLS3000 L27bE (Kabat) L chain altered form, one-arm antibody with CE115HA000 (antibody, human IgG1, kappa, L234A L235A, N297A, name in Kabat numbering)
heavy: B1 heavy
chain: B1 chain
light: B1 light with L29E, A55K
notes: one-arm antibody
B4: GLS3000 N28M (Kabat) L chain altered form, one-arm antibody with CE115HA000 (antibody, human IgG1, kappa, L234A L235A, N297A, name in Kabat numbering)
heavy: B1 heavy
chain: B1 chain
light: B1 light with N33M, A55K
notes: one-arm antibody
B5: GLS3000 N30A (Kabat) L chain altered form, one-arm antibody with CE115HA000 (antibody, human IgG1, kappa, L234A L235A, N297A, name in Kabat numbering)
heavy: B1 heavy
chain: B1 chain
light: B1 light with N35A, A55K
notes: one-arm antibody
B6: GLS3000 L27bW (Kabat) L chain altered form, one-arm antibody with CE115HA000 (antibody, human IgG1, kappa, L234A L235A, N297A, name in Kabat numbering)
heavy: B1 heavy
chain: B1 chain
light: B1 light with L29W, A55K
notes: one-arm antibody
B7: GLS3000 N28G (Kabat) L chain altered form, one-arm antibody with CE115HA000 (antibody, human IgG1, kappa, L234A L235A, N297A, name in Kabat numbering)
heavy: B1 heavy
chain: B1 chain
light: B1 light with N33G, A55K
notes: one-arm antibody
B8: GLS3000 L27bY (Kabat) L chain altered form, one-arm antibody with CE115HA000 (antibody, human IgG1, kappa, L234A L235A, N297A, name in Kabat numbering)
heavy: B1 heavy
chain: B1 chain
light: B1 light with L29Y, A55K
notes: one-arm antibody
B9: GLS3000 N28W (Kabat) L chain altered form, one-arm antibody with CE115HA000 (antibody, human IgG1, kappa, L234A L235A, N297A, name in Kabat numbering)
heavy: B1 heavy
chain: B1 chain
light: B1 light with N33W, A55K
notes: one-arm antibody
B10: GLS3000 N28L (Kabat) L chain altered form, one-arm antibody with CE115HA000 (antibody, human IgG1, kappa, L234A L235A, N297A, name in Kabat numbering)
heavy: B1 heavy
chain: B1 chain
light: B1 light with N33L, A55K
notes: one-arm antibody
B11: GLS3000 L27bF (Kabat) L chain altered form, one-arm antibody with CE115HA000 (antibody, human IgG1, kappa, L234A L235A, N297A, name in Kabat numbering)
heavy: B1 heavy
chain: B1 chain
light: B1 light with L29F, A55K
notes: one-arm antibody
B12: GLS3000 N28P (Kabat) L chain altered form, one-arm antibody with CE115HA000 (antibody, human IgG1, kappa, L234A L235A, N297A, name in Kabat numbering)
heavy: B1 heavy
chain: B1 chain
light: B1 light with N33P, A55K
notes: one-arm antibody
B13: GLS3000 N28K (Kabat) L chain altered form, one-arm antibody with CE115HA000 (antibody, human IgG1, kappa, L234A L235A, N297A, name in Kabat numbering)
heavy: B1 heavy
chain: B1 chain
light: B1 light with N33K, A55K
notes: one-arm antibody
B14: GLS3000 N28D (Kabat) L chain altered form, one-arm antibody with CE115HA000 (antibody, human IgG1, kappa, L234A L235A, N297A, name in Kabat numbering)
heavy: B1 heavy
chain: B1 chain
light: B1 light with N33D, A55K
notes: one-arm antibody
B15: GLS3000 N28T (Kabat) L chain altered form, one-arm antibody with CE115HA000 (antibody, human IgG1, kappa, L234A L235A, N297A, name in Kabat numbering)
heavy: B1 heavy
chain: B1 chain
light: B1 light with N33T, A55K
notes: one-arm antibody
B16: GLS3000 N30E (Kabat) L chain altered form, one-arm antibody with CE115HA000 (antibody, human IgG1, kappa, L234A L235A, N297A, name in Kabat numbering)
heavy: B1 heavy
chain: B1 chain
light: B1 light with N35E, A55K
notes: one-arm antibody
B17: GLS3000 L33A (Kabat) L chain altered form, one-arm antibody with CE115HA000 (antibody, human IgG1, kappa, L234A L235A, N297A, name in Kabat numbering)
heavy: B1 heavy
chain: B1 chain
light: B1 light with L38A, A55K
notes: one-arm antibody
B18: GLS3000 L27bD (Kabat) L chain altered form, one-arm antibody with CE115HA000 (antibody, human IgG1, kappa, L234A L235A, N297A, name in Kabat numbering)
heavy: B1 heavy
chain: B1 chain
light: B1 light with L29D, A55K
notes: one-arm antibody
B19: GLS3000 N30D (Kabat) L chain altered form, one-arm antibody with CE115HA000 (antibody, human IgG1, kappa, L234A L235A, N297A, name in Kabat numbering)
heavy: B1 heavy
chain: B1 chain
light: B1 light with N35D, A55K
notes: one-arm antibody
B20: GLS3000 N30G (Kabat) L chain altered form, one-arm antibody with CE115HA000 (antibody, human IgG1, kappa, L234A L235A, N297A, name in Kabat numbering)
heavy: B1 heavy
chain: B1 chain
light: B1 light with N35G, A55K
notes: one-arm antibody
B21: GLS3000 N28I (Kabat) L chain altered form, one-arm antibody with CE115HA000 (antibody, human IgG1, kappa, L234A L235A, N297A, name in Kabat numbering)
heavy: B1 heavy
chain: B1 chain
light: B1 light with N33I, A55K
notes: one-arm antibody
B22: GLS3000 L27bI (Kabat) L chain altered form, one-arm antibody with CE115HA000 (antibody, human IgG1, kappa, L234A L235A, N297A, name in Kabat numbering)
heavy: B1 heavy
chain: B1 chain
light: B1 light with L29I, A55K
notes: one-arm antibody
B23: GLS3000 N28H (Kabat) L chain altered form, one-arm antibody with CE115HA000 (antibody, human IgG1, kappa, L234A L235A, N297A, name in Kabat numbering)
heavy: B1 heavy
chain: B1 chain
light: B1 light with N33H, A55K
notes: one-arm antibody
B24: GLS3000 N28Q (Kabat) L chain altered form, one-arm antibody with CE115HA000 (antibody, human IgG1, kappa, L234A L235A, N297A, name in Kabat numbering)
heavy: B1 heavy
chain: B1 chain
light: B1 light with N33Q, A55K
notes: one-arm antibody
B25: GLS3000 N28S (Kabat) L chain altered form, one-arm antibody with CE115HA000 (antibody, human IgG1, kappa, L234A L235A, N297A, name in Kabat numbering)
heavy: B1 heavy
chain: B1 chain
light: B1 light with N33S, A55K
notes: one-arm antibody
B26: GLS3000 N28Y (Kabat) L chain altered form, one-arm antibody with CE115HA000 (antibody, human IgG1, kappa, L234A L235A, N297A, name in Kabat numbering)
heavy: B1 heavy
chain: B1 chain
light: B1 light with N33Y, A55K
notes: one-arm antibody
B27: GLS3000 N30H (Kabat) L chain altered form, one-arm antibody with CE115HA000 (antibody, human IgG1, kappa, L234A L235A, N297A, name in Kabat numbering)
heavy: B1 heavy
chain: B1 chain
light: B1 light with N35H, A55K
notes: one-arm antibody
B28: GLS3000 N28A (Kabat) L chain altered form, one-arm antibody with CE115HA000 (antibody, human IgG1, kappa, L234A L235A, N297A, name in Kabat numbering)
heavy: B1 heavy
chain: B1 chain
light: B1 light with N33A, A55K
notes: one-arm antibody
B29: GLS3000 L27bV (Kabat) L chain altered form, one-arm antibody with CE115HA000 (antibody, human IgG1, kappa, L234A L235A, N297A, name in Kabat numbering)
heavy: B1 heavy
chain: B1 chain
light: B1 light with L29V, A55K
notes: one-arm antibody
B30: GLS3000 N28E (Kabat) L chain altered form, one-arm antibody with CE115HA000 (antibody, human IgG1, kappa, L234A L235A, N297A, name in Kabat numbering)
heavy: B1 heavy
chain: B1 chain
light: B1 light with N33E, A55K
notes: one-arm antibody
B31: GLS3000 N28V (Kabat) L chain altered form, one-arm antibody with CE115HA000 (antibody, human IgG1, kappa, L234A L235A, N297A, name in Kabat numbering)
heavy: B1 heavy
chain: B1 chain
light: B1 light with N33V, A55K
notes: one-arm antibody
B32: GLS3000 L27bS (Kabat) L chain altered form, one-arm antibody with CE115HA000 (antibody, human IgG1, kappa, L234A L235A, N297A, name in Kabat numbering)
heavy: B1 heavy
chain: B1 chain
light: B1 light with L29S, A55K
notes: one-arm antibody
B33: GLS3000 L27bM (Kabat) L chain altered form, one-arm antibody with CE115HA000 (antibody, human IgG1, kappa, L234A L235A, N297A, name in Kabat numbering)
heavy: B1 heavy
chain: B1 chain
light: B1 light with L29M, A55K
notes: one-arm antibody
B34: GLS3000 L27bP (Kabat) L chain altered form, one-arm antibody with CE115HA000 (antibody, human IgG1, kappa, L234A L235A, N297A, name in Kabat numbering)
heavy: B1 heavy
chain: B1 chain
light: B1 light with L29P, A55K
notes: one-arm antibody

Molecular target: T1, CD3 epsilon homodimer protein (UniProt P07766 23-126)
T1 construct: construct not described; homodimer as printed; also called CD3 (CD3 epsilon)
T1 sequence (P07766 23-126): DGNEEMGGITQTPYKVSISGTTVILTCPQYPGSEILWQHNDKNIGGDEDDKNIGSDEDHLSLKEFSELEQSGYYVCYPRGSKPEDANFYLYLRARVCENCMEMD
Assay: SPR Biacore T200, CD3 epsilon homodimer immobilized; vs unaltered GLS3000;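 further: antibody variants flowed as analyte over CD3 epsilon homodimer amine-coupled to a CM4 chip, at 25 °C in HBS-EP+ running buffer, fitted with Biacore T200 Evaluation Software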

KD ratio to GLS3000 (Affinity up)	Binder
59.5	B1
2.59	B2
26.8	B3
3.29	B4
1.16	B5
23.6	B6
2.41	B7
22.2	B8
3.17	B9
3.34	B10
2.67	B11
4.18	B12
2.34	B13
4460	B14
2.67	B15
2.83	B16
0.82	B17

KD ratio to GLS3000 (Affinity up)	Binder
25.1	B18
3.82	B19
2.1	B20
2.81	B21
1.17	B22
3	B23
3.48	B24
4.3	B25
3.89	B26
1.08	B27
4.18	B28
1.11	B29
5.47	B30
3.73	B31
0.9	B32
1.31	B33
0.96	B34
